Laboratory results taken from publication PMC12589563.

Target: KCNQ1 of the KCNQ1APO structure (human) (UniProt P51787)
Experiment: cryo-EM structure; human KCNQ1 with CaM, apo state; C4 symmetry, 2.5 Å

## KCNQ1 of the KCNQ1APO structure (from UniProt P51787 1-676) (natural protein)
  stoichiometry N: 4
